Laboratory results from PMC4100928, “Evolutionary Divergence in the Catalytic Activity of the CAM-1, ROR1 and ROR2 Kinase Domains” (PLoS ONE, 2014).

How the values were obtained:
ROR1 ICD [1] = target: T1, ROR1 ICD (Homo sapiens, UniProt Q01973); assay: [gamma-32P]ATP phosphocellulose paper binding assay, initial rates; format: biochemical; conditions: 20 mM Mg2+ or 5 mM Mn2+; 5 mM activation loop peptide; 20 °C; limit of assay
T1 sequence (Q01973 428-937): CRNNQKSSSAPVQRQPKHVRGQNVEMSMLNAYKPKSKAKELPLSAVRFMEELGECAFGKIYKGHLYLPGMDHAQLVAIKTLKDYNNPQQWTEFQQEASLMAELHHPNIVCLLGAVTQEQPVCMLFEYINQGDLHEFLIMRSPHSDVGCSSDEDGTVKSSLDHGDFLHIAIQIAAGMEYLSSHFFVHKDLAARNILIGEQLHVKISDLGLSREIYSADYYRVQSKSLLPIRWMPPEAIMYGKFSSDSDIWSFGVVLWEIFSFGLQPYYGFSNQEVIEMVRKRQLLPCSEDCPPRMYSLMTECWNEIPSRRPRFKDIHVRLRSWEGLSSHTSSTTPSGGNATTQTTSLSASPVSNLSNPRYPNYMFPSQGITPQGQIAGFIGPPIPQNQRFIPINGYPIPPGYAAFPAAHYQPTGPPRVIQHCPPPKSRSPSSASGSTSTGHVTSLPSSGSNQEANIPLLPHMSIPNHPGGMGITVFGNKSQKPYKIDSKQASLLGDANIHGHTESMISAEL
Source text: (§1) [gamma-32P]ATP phosphocellulose paper binding assay, initial rates on ROR1 ICD

ROR1 ICD [2] = target: T2, ROR1 ICD (Homo sapiens, UniProt Q01973, C482G); assay: as above; format: biochemical; conditions: 20 mM Mg2+ or 5 mM Mn2+; 5 mM activation loop peptide; 20 °C; limit of assay
T2 sequence (Q01973 428-937 C482G): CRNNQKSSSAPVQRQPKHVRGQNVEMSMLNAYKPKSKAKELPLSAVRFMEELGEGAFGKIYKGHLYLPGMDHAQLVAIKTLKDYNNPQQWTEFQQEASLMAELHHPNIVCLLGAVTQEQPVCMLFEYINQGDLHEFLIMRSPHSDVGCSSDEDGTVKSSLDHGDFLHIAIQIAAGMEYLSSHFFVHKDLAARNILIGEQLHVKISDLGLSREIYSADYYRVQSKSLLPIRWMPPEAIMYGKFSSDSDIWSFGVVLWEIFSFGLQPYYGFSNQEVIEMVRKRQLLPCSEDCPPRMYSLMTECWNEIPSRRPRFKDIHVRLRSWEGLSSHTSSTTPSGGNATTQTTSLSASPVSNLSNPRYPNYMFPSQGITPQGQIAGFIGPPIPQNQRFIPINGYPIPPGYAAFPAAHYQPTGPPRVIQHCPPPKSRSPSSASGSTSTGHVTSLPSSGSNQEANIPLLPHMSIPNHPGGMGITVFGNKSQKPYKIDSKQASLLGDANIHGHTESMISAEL
Source text: as §1

MuSK ICD = target: T3, MuSK ICD (Homo sapiens, UniProt O15146); assay: autophosphorylation, anti-phosphotyrosine immunoblot; format: biochemical; conditions: 2 mM ATP, 20 mM MgCl2, 0.2 mM orthovanadate, about 18 h at 4 °C
T3 sequence (O15146 519-869): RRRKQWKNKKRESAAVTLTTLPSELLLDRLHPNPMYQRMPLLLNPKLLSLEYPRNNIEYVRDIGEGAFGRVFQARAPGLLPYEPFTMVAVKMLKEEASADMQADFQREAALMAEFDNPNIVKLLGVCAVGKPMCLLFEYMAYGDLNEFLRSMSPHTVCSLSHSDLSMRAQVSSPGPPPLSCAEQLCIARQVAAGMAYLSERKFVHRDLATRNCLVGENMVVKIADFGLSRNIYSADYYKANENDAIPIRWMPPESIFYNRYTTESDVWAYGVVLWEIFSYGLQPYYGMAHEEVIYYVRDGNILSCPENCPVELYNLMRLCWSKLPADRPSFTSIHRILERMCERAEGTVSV

[3] = substrate: Nc1ncnc2c1ncn2[C@@H]1O[C@H](COP(=O)(O)OP(=O)(O)OP(=O)(O)O)[C@@H](O)[C@H]1O; assay: [gamma-32P]ATP phosphocellulose paper binding assay, initial rates; format: biochemical, Caenorhabditis elegans; conditions: 5 mM activation loop peptide, 20 °C
Source text: [gamma-32P]ATP phosphocellulose paper binding assay, initial rates on CAM-1 ICD

[4] = substrate: Nc1ncnc2c1ncn2[C@@H]1O[C@H](COP(=O)(O)OP(=O)(O)OP(=O)(O)O)[C@@H](O)[C@H]1O; assay: as above; format: biochemical, Homo sapiens; conditions: 20 mM Mg2+ or 5 mM Mn2+, 5 mM activation loop peptide, 20 °C, limit of assay
Source text: [gamma-32P]ATP phosphocellulose paper binding assay, initial rates on ROR2 ICD

[5] = 20 mM Mg2+ or 5 mM Mn2+, limit of assay
[6] = phosphorylated enzyme (pre-incubated with ATP/Mg2+) 10 µM, 20 mM Mg2+
[7] = unphosphorylated enzyme 10 µM, 20 mM Mg2+

## Nc1ncnc2c1ncn2[C@@H]1O[C@H](COP(=O)(O)OP(=O)(O)OP(=O)(O)O)[C@@H](O)[C@H]1O [ATP]
ROR1 ICD [1]
  Km: > 15 mM
ROR1 ICD [2]
  Km: > 15 mM
MuSK ICD
  autophosphorylation, anti-phosphotyrosine immunoblot: ICDs of receptors ROR1, ROR2, CAM-1 and MuSK were incubated overnight

B1: CAM-1 ICD (Caenorhabditis elegans; K624R) (protein)
chain: RAKKKSQKTRHQNAHCSSAPSVINSAANSAYYRKLNGTSTPIMGRVPPHVEMTSLLPSAQHLGPPPYPMDQHLQQARRFPSQEPIDDNSYKVFEITPSQLSVREKIGEGQFGVVHSGIYTSGLFAPEPMAVAVRKCRHDATNAERAQLEQEIRAVATFDHPNVIKLIGVCYMDNSLLAVFEYMVHGDLHELLKVRVPPADHDMGGITEANAEFLYIATQIALGMEYLASMSFVHRDLATRNCLVGDTRTIKIADFGLMRTSYGSDYYKMLHRSWMPVRWMSKEAIEQGRFSEASDVWSFGVTLWEIWSFGRQPYEGASNQQVIELVANRHLLECPHNCPTNIYSLMVECWHENIERRPTFSEIRSRLQSWSLASPAHSILQQHNNRAGSHSGSSGAGRPPTHQRGYPSQKLHRRVEGASPLMKRHDANYAYSEDGDSD
[3]; 20 mM Mg2+
  Km: 6.69 ± 1.12 mM
  kcat: 0.00333 ± 0.00033 s⁻¹
  kcat/Km: 0.5 M⁻¹ s⁻¹

B2: CAM-1 ICD (Caenorhabditis elegans; D744N) (protein)
chain: RAKKKSQKTRHQNAHCSSAPSVINSAANSAYYRKLNGTSTPIMGRVPPHVEMTSLLPSAQHLGPPPYPMDQHLQQARRFPSQEPIDDNSYKVFEITPSQLSVREKIGEGQFGVVHSGIYTSGLFAPEPMAVAVKKCRHDATNAERAQLEQEIRAVATFDHPNVIKLIGVCYMDNSLLAVFEYMVHGDLHELLKVRVPPADHDMGGITEANAEFLYIATQIALGMEYLASMSFVHRDLATRNCLVGDTRTIKIANFGLMRTSYGSDYYKMLHRSWMPVRWMSKEAIEQGRFSEASDVWSFGVTLWEIWSFGRQPYEGASNQQVIELVANRHLLECPHNCPTNIYSLMVECWHENIERRPTFSEIRSRLQSWSLASPAHSILQQHNNRAGSHSGSSGAGRPPTHQRGYPSQKLHRRVEGASPLMKRHDANYAYSEDGDSD
[3]; [5]
  kcat: <8.3e-06 s⁻¹
  kcat/Km: < 0.0005 M⁻¹ s⁻¹

B3: CAM-1 ICD (Caenorhabditis elegans; G599C) (protein)
chain: RAKKKSQKTRHQNAHCSSAPSVINSAANSAYYRKLNGTSTPIMGRVPPHVEMTSLLPSAQHLGPPPYPMDQHLQQARRFPSQEPIDDNSYKVFEITPSQLSVREKIGECQFGVVHSGIYTSGLFAPEPMAVAVKKCRHDATNAERAQLEQEIRAVATFDHPNVIKLIGVCYMDNSLLAVFEYMVHGDLHELLKVRVPPADHDMGGITEANAEFLYIATQIALGMEYLASMSFVHRDLATRNCLVGDTRTIKIADFGLMRTSYGSDYYKMLHRSWMPVRWMSKEAIEQGRFSEASDVWSFGVTLWEIWSFGRQPYEGASNQQVIELVANRHLLECPHNCPTNIYSLMVECWHENIERRPTFSEIRSRLQSWSLASPAHSILQQHNNRAGSHSGSSGAGRPPTHQRGYPSQKLHRRVEGASPLMKRHDANYAYSEDGDSD
[3]; [5]
  kcat: <8.3e-06 s⁻¹
  kcat/Km: < 0.0005 M⁻¹ s⁻¹

B4: CAM-1 ICD (Caenorhabditis elegans; G599D) (protein)
chain: RAKKKSQKTRHQNAHCSSAPSVINSAANSAYYRKLNGTSTPIMGRVPPHVEMTSLLPSAQHLGPPPYPMDQHLQQARRFPSQEPIDDNSYKVFEITPSQLSVREKIGEDQFGVVHSGIYTSGLFAPEPMAVAVKKCRHDATNAERAQLEQEIRAVATFDHPNVIKLIGVCYMDNSLLAVFEYMVHGDLHELLKVRVPPADHDMGGITEANAEFLYIATQIALGMEYLASMSFVHRDLATRNCLVGDTRTIKIADFGLMRTSYGSDYYKMLHRSWMPVRWMSKEAIEQGRFSEASDVWSFGVTLWEIWSFGRQPYEGASNQQVIELVANRHLLECPHNCPTNIYSLMVECWHENIERRPTFSEIRSRLQSWSLASPAHSILQQHNNRAGSHSGSSGAGRPPTHQRGYPSQKLHRRVEGASPLMKRHDANYAYSEDGDSD
[3]; [5]
  kcat: <8.3e-06 s⁻¹
  kcat/Km: < 0.0005 M⁻¹ s⁻¹

B5: ROR2 ICD (Homo sapiens) (protein)
chain: CRNKQKASASTPQRRQLMASPSQDMEMPLINQHKQAKLKEISLSAVRFMEELGEDRFGKVYKGHLFGPAPGEQTQAVAIKTLKDKAEGPLREEFRHEAMLRARLQHPNVVCLLGVVTKDQPLSMIFSYCSHGDLHEFLVMRSPHSDVGSTDDDRTVKSALEPPDFVHLVAQIAAGMEYLSSHHVVHKDLATRNVLVYDKLNVKISDLGLFREVYAADYYKLLGNSLLPIRWMAPEAIMYGKFSIDSDIWSYGVVLWEVFSYGLQPYCGYSNQDVVEMIRNRQVLPCPDDCPAWVYALMIECWNEFPSRRPRFKDIHSRLRAWGNLSNYNSSAQTSGASNTTQTSSLSTSPVSNVSNARYVGPKQKAPPFPQPQFIPMKGQIRPMVPPPQLYVPVNGYQPVPAYGAYLPNFYPVQIPMQMAPQQVPPQMVPKPSSHHSGSGSTSTGYVTTAPSNTSMADRAALLSEGADDTQNAPEDGAQSTVQEAEEEEEGSVPETELLGDCDTLQVDEAQVQLEA
[4]
  kcat: <8.3e-06 s⁻¹
  kcat/Km: < 0.0005 M⁻¹ s⁻¹

B6: ROR2 ICD (Homo sapiens; D482G) (protein)
chain: CRNKQKASASTPQRRQLMASPSQDMEMPLINQHKQAKLKEISLSAVRFMEELGEGRFGKVYKGHLFGPAPGEQTQAVAIKTLKDKAEGPLREEFRHEAMLRARLQHPNVVCLLGVVTKDQPLSMIFSYCSHGDLHEFLVMRSPHSDVGSTDDDRTVKSALEPPDFVHLVAQIAAGMEYLSSHHVVHKDLATRNVLVYDKLNVKISDLGLFREVYAADYYKLLGNSLLPIRWMAPEAIMYGKFSIDSDIWSYGVVLWEVFSYGLQPYCGYSNQDVVEMIRNRQVLPCPDDCPAWVYALMIECWNEFPSRRPRFKDIHSRLRAWGNLSNYNSSAQTSGASNTTQTSSLSTSPVSNVSNARYVGPKQKAPPFPQPQFIPMKGQIRPMVPPPQLYVPVNGYQPVPAYGAYLPNFYPVQIPMQMAPQQVPPQMVPKPSSHHSGSGSTSTGYVTTAPSNTSMADRAALLSEGADDTQNAPEDGAQSTVQEAEEEEEGSVPETELLGDCDTLQVDEAQVQLEA
[4]
  kcat: <8.3e-06 s⁻¹
  kcat/Km: < 0.0005 M⁻¹ s⁻¹

B7: CAM-1 ICD (Caenorhabditis elegans) (protein)
chain: RAKKKSQKTRHQNAHCSSAPSVINSAANSAYYRKLNGTSTPIMGRVPPHVEMTSLLPSAQHLGPPPYPMDQHLQQARRFPSQEPIDDNSYKVFEITPSQLSVREKIGEGQFGVVHSGIYTSGLFAPEPMAVAVKKCRHDATNAERAQLEQEIRAVATFDHPNVIKLIGVCYMDNSLLAVFEYMVHGDLHELLKVRVPPADHDMGGITEANAEFLYIATQIALGMEYLASMSFVHRDLATRNCLVGDTRTIKIADFGLMRTSYGSDYYKMLHRSWMPVRWMSKEAIEQGRFSEASDVWSFGVTLWEIWSFGRQPYEGASNQQVIELVANRHLLECPHNCPTNIYSLMVECWHENIERRPTFSEIRSRLQSWSLASPAHSILQQHNNRAGSHSGSSGAGRPPTHQRGYPSQKLHRRVEGASPLMKRHDANYAYSEDGDSD
[3]; [6]
  Km: 3.35 ± 0.57 mM
  kcat: 0.0422 ± 0.003 s⁻¹
  kcat/Km: 12.7 M⁻¹ s⁻¹
[3]; [7]
  Km: 3.53 ± 0.34 mM
  kcat: 0.0438 ± 0.00183 s⁻¹
  kcat/Km: 12.5 M⁻¹ s⁻¹
